Percent of parent data for eleven variants are collected here from PMC3579193, “Elucidation of relaxin-3 binding interactions in the extracellular loops of RXFP3” (Frontiers in Endocrinology, 2013).

B1: mono-Eu-labeled relaxin-3 agonist H3 relaxin B-chain, INSL5 A chain (H3/I5) [modified: mono-Eu label on the peptide; chain and site not stated] [not stated | human] / HA-tagged human RXFP3 (HA-RXFP3) [human] (parent complex)
chain 1: RAAPYGVRLCGREFIRAVIFTCGGSRW
chain 2: QDLQTLCCTDGCSMTDLSALC
chain 3: QMADAATIATMNKAAGGDKLAELFSLVPDLLEAANTSGNASLQLPDLWWELGLELPDGAPPGHPPGSGGAESADTEARVRILISVVYWVVCALGLAGNLLVLYLMKSMQGWRKSSINLFVTNLALTDFQFVLTLPFWAVENALDFKWPFGKAMCKIVSMVTSMNMYASVFFLTAMSVTRYHSVASALKSHRTRGHGRGDCCGRSLGDSCCFSAKALCVWIWALAALASLPSAIFSTTVKVMGEELCLVRFPDKLLGRDRQFWLGLYHSQKVLLGFVLPLGIIILCYLLLVRFIADRRAAGTKGGAAVAGGRPTGASARRLSKVTKSVTIVVLSFFLCWLPNQALTTWSILIKFNAVPFSQEYFLCQVYAFPVSVCLAHSNSCLNPVLYCLVRREFRKALKSLLWRIASPSITSMRPFTATTKPEHEDQGLQAPAPPHAAAEPDLLYYPPGVVVYSGGRYDLLPSSSAY

In this experiment the parent is B1. In words: Eu-H3/I5 binding on cells, normalized to cell surface expression; read off a plot.
With chain 3 D74A, the percent of parent is ~81 % of RXFP3 binding. The value for chain 3 E361A was ~77 % of RXFP3 binding; that for chain 3 E243A was ~15 % of RXFP3 binding; that for chain 3 E140A was ~5.5 % of RXFP3 binding. The value for chain 3 E140A, chain 3 D144A was ~6 % of RXFP3 binding.

With chain 3 D144A, the percent of parent was ~9.5 % of RXFP3 binding. The result for chain 3 D46A, chain 3 E50A reads ~99 % of RXFP3 binding. The value for chain 3 E71A was ~110 % of RXFP3 binding.

As to chain 3 D252A, the percent of parent was ~96 % of RXFP3 binding. The result for chain 3 D258A reads ~79 % of RXFP3 binding; that for chain 3 E54A, chain 3 D57A, ~130 % of RXFP3 binding.
